Results reported in patent publication US20240254255A1.

Assays:
[1] = molecular target: human HER2 (ErbB2) expressed on the surface of cell lines and primary cells (human) (UniProt P04626); assay: flow cytometry, MDAMB361 cells, [Ab] 40 ug/ml
[2] = molecular target: human HER2 (ErbB2) expressed on the surface of cell lines and primary cells (human) (UniProt P04626); assay: flow cytometry, ZR751 cells, [Ab] 0.63 ug/ml
[3] = molecular target: human HER2 (ErbB2) expressed on the surface of cell lines and primary cells (human) (UniProt P04626); assay: flow cytometry, JIMT1 cells, [Ab] 10 ug/ml
[4] = molecular target: human HER2 (ErbB2) expressed on the surface of cell lines and primary cells (human) (UniProt P04626); assay: flow cytometry, ZR751 cells, [Ab] 40 ug/ml
[5] = molecular target: human HER2 (ErbB2) expressed on the surface of cell lines and primary cells (human) (UniProt P04626); assay: flow cytometry, MDAMB361 cells, [Ab] 10 ug/ml
[6] = molecular target: human HER2 (ErbB2) expressed on the surface of cell lines and primary cells (human) (UniProt P04626); assay: flow cytometry, ZR751 cells, [Ab] 10 ug/ml
[7] = molecular target: human HER2 (ErbB2) expressed on the surface of cell lines and primary cells (human) (UniProt P04626); assay: flow cytometry, MDAMB361 cells, [Ab] 1.25 ug/ml
[8] = molecular target: human HER2 (ErbB2) expressed on the surface of cell lines and primary cells (human) (UniProt P04626); assay: flow cytometry, JIMT1 cells, [Ab] 5 ug/ml
[9] = molecular target: human HER2 (ErbB2) expressed on the surface of cell lines and primary cells (human) (UniProt P04626); assay: flow cytometry, MDAMB361 cells, [Ab] 5 ug/ml
[10] = molecular target: human HER2 (ErbB2) expressed on the surface of cell lines and primary cells (human) (UniProt P04626); assay: flow cytometry, JIMT1 cells, [Ab] 1.25 ug/ml
[11] = molecular target: human HER2 (ErbB2) expressed on the surface of cell lines and primary cells (human) (UniProt P04626); assay: flow cytometry, MDAMB361 cells, [Ab] 20 ug/ml
[12] = molecular target: human HER2 (ErbB2) expressed on the surface of cell lines and primary cells (human) (UniProt P04626); assay: flow cytometry, ZR751 cells, [Ab] 0.31 ug/ml
[13] = molecular target: human HER2 (ErbB2) expressed on the surface of cell lines and primary cells (human) (UniProt P04626); assay: flow cytometry, ZR751 cells, [Ab] 1.25 ug/ml
[14] = molecular target: human HER2 (ErbB2) expressed on the surface of cell lines and primary cells (human) (UniProt P04626); assay: flow cytometry, ZR751 cells, [Ab] 2.5 ug/ml
[15] = molecular target: human HER2 (ErbB2) expressed on the surface of cell lines and primary cells (human) (UniProt P04626); assay: flow cytometry, ZR751 cells, [Ab] 20 ug/ml
[16] = molecular target: human HER2 (ErbB2) expressed on the surface of cell lines and primary cells (human) (UniProt P04626); assay: flow cytometry, ZR751 cells, [Ab] 5 ug/ml
[17] = molecular target: human HER2 (ErbB2) expressed on the surface of cell lines and primary cells (human) (UniProt P04626); assay: flow cytometry, JIMT1 cells, [Ab] 20 ug/ml

IC1 (isotype control antibody)
MFI A.U. [1]: 558 A.U. | MFI A.U. [2]: 271 A.U. | MFI A.U. [3]: 240 A.U. | MFI A.U. [4]: 3320 A.U. | MFI A.U. [5]: 605 A.U. | MFI A.U. [6]: 1080 A.U. | MFI A.U. [7]: 202 A.U. | MFI A.U. [8]: 190 A.U. | MFI A.U. [9]: 253 A.U. | MFI A.U. [10]: 183 A.U. | MFI A.U. [11]: 617 A.U. | MFI A.U. [12]: 199 A.U. | MFI A.U. [13]: 312 A.U. | MFI A.U. [14]: 484 A.U. | MFI A.U. [15]: 2540 A.U. | MFI A.U. [16]: 696 A.U. | MFI A.U. [17]: 516 A.U.
